Results reported in article PMC12173945, “Import mechanism of peroxisomal proteins with an N-terminal signal sequence” (Nature Cell Biology, 2025).

Key:
yeast PEX7 [1] = assay: Bead-binding assay: PEX5 variants, PEX7 and PTS2 cargo (Extended Data Fig. 2a,c, 6b); parameters: species or system yeast (S. cerevisiae); details: 1 µM PEX7–GFP
Source text: Cysteine-containing peptides were covalently conjugated to thiol-reactive SulfoLink coupling resin (Thermo Fisher, catalogue number 20401) according to the manufacturer’s instructions. The prepared beads were then mixed with Assay Buffer containing the fluorescently labelled protein as well as additional components indicated in the text, and the resulting bead suspensions were transferred to a 384-well glass-bottomed plate (Cellvis, P384-1.5H-N). GST-fusion proteins were instead mixed with glutathione agarose 4B (Prometheus, 20-543) in Assay Buffer containing the fluorescently labelled protein and additional components indicated in the text; the resulting bead suspensions were then transferred to a glass-bottomed plate as above. The plates were incubated at RT for the durations specified in the text and directly imaged on the spinning-disk confocal platform described earlier for peroxisomal import reactions in Xenopus egg extract. Note that imaging the beads directly in the binding reaction preserves the equilibrium and thereby allows even weak interactions to be detected. Fluorescence was collected through a Nikon ×10 0.45 NA Plan Apo air objective, and images were acquired using the Nikon NIS-Elements software and a 16-bit digitizer without binning. Imaging parameters were configured to maximize the SNR while avoiding saturation. […]

[2] = biological target: T1, yeast PEX7 fused at the C terminus to GFP (PEX7–GFP) (yeast (S. cerevisiae), UniProt P39108 1-375); assay: bead-binding assay (fluorescence on beads by spinning-disk confocal microscopy); peptide or YG-domain polypeptide conjugated through a cysteine to thiol-reactive beads; PEX7–GFP or GFP alone in Assay Buffer (25 mM HEPES-NaOH pH 7.8, 150 mM NaCl, 1 mM TCEP), RT, 1 h (Fig. 3b); beads imaged directly in the binding reaction; details: both partners purified
T1 construct: PEX7, yeast (S. cerevisiae); not shown: GST, N-terminal, cleaved; GFP, C-terminal, kept
T1 sequence (looked up): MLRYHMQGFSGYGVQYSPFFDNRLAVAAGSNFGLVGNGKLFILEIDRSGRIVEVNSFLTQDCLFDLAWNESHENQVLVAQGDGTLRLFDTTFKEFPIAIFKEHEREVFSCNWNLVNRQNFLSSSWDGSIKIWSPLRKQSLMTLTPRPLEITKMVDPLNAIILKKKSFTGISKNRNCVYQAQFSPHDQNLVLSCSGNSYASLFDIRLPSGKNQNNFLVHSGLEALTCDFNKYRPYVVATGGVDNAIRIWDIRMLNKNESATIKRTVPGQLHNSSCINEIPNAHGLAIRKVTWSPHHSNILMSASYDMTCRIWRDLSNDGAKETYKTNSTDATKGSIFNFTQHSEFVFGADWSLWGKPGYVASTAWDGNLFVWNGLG

yeast PEX7 [3] = biological target: T2, yeast PEX7 (yeast (S. cerevisiae), UniProt P39108 1-375); assay: pull-down; competition: glutathione beads with yeast PEX7 and GST-tagged PEX39 ∆APH (each 1 µM), 30 min at 25 °C, then varying concentrations of peptide for 1 h; beads sedimented, supernatant on SDS–PAGE with Coomassie; competitive-binding isotherm, observed binding constants (Kobs); details: both partners purified
T2 construct: PEX7, yeast (S. cerevisiae); also called purified recombinant yeast PEX7; not shown: GST, N-terminal, cleaved
T2 sequence (looked up): T1 sequence (looked up)

yeast PEX7 [4] = biological target: T2, yeast PEX7; assay: pull-down; quantitative: glutathione agarose with 1 µM yeast PEX7 and varying concentrations of GST-tagged PEX39 variants, Assay Buffer, 25 °C, 1 h; beads sedimented, PEX7 left in the supernatant quantified by SDS–PAGE and Coomassie; observed binding constants (Kobs); details: both partners purified
[5] = biological target: T1, yeast PEX7 fused at the C terminus to …; assay: bead-binding assay (fluorescence on beads by spinning-disk confocal microscopy); GST-tagged protein on glutathione beads; GFP-fused partner in solution (1 µM each in Extended Data Fig. 9a); 1 h, RT; details: both partners purified
[6] = test system: PEX7–FLAG in peroxisome-containing membrane fraction; assay: Cell fractionation and FLAG immunoprecipitation / immunoblot of PEX7–FLAG and PEX39–FLAG; type: cell-based, S. cerevisiae; details: PEX13 lacking the KPWE motif; yeast in oleic acid
Method: Samples in Laemmli buffer (50 mM Tris–HCl pH 6.8 at RT, 10% vol/vol glycerol, 2% wt/vol SDS, 0.01% bromophenol blue and 700 mM β-mercaptoethanol) were heated for 5 min at 95 °C and then electrophoretically resolved under denaturing conditions on 4–20% TGX precast polyacrylamide gels (Bio-Rad, catalogue number 5671095). For immunoblotting, samples were transferred from the gels to Immun-Blot PVDF membranes (Bio-Rad, catalogue number 13709A06) for 12 h at 25 V and RT in 25 mM Tris, 192 mM glycine and 10% vol/vol methanol. The membranes were blotted in 20 mM Tris–HCl pH 7.5 at RT, 150 mM NaCl, 0.01% vol/vol Tween 20 and 3% wt/vol fat-free milk solids (Apex, catalogue number 20241) using antibodies to the FLAG epitope (Sigma, F7425) and compatible horseradish peroxidase-conjugated secondary antibodies (Cytiva, NA934). The blots were developed by chemiluminescence (Perkin Elmer, NEL103001EA) and scanned on an Amersham ImageQuant 800 imaging system. For staining with Coomassie blue, gels were fixed in 50% vol/vol methanol and 10% vol/vol acetic acid for 30 min at RT, incubated for 30 min in 50% vol/vol methanol, 10% vol/vol acetic acid and 0.001% wt/vol Coomassie brilliant blue R-250 (Bio-Rad), and destained overnight in 10% vol/vol acetic acid before washing into water. The stained gels were digitized on an Epson Perfection V700 scanner using the Epson Scan 2 software. […]

[7] = test system: S. cerevisiae cells expressing RFP–FOX2 and POT1–GFP; assay: Peroxisomal protein import assay in S. cerevisiae; type: cell-based; details: yeast expressing PTS1 and PTS2 matrix proteins
Method: Peroxisome biogenesis was induced in S. cerevisiae using an established procedure. Briefly, cells were subcultured twice in YPD medium to mid-log phase (optical density at 600 nm (OD600) ≈ 2), harvested through centrifugation at 2,000g and 30 °C for 10 min, sterilely resuspended to an OD600 of 0.5 in YPGO medium (1% wt/vol yeast extract, 2% wt/vol peptone, 2% vol/vol glycerol, 0.1% wt/vol oleic acid and 0.25% vol/vol Tween 40) and cultured for an additional 16 h at 30 °C. For experiments involving PEX7 riboswitch constructs, cultures in YPGO were supplemented with 250 µM tetracycline (Millipore Sigma, T7660) as described previously.
S. cerevisiae cells expressing RFP–FOX2 and POT1–GFP (MSB-462) were induced to form peroxisomes as described earlier. […]
The cells were imaged on a spinning-disk confocal platform consisting of a Nikon Eclipse Ti inverted microscope, a Yokagawa CSU-X1 spinning-disk confocal scanner, a Hamamatsu ORCA-Fusion BT sCMOS camera and a Prior Proscan II motorized stage. […] Fluorescence was collected using a red-emission ET605/52 m (605 ± 26 nm) or a green-emission ET525/50 m (525 ± 25 nm) single-band bandpass filter (Chroma), respectively, through either a Nikon ×100 1.45 numerical aperture (NA) Plan Apo Lambda or Nikon ×40 0.95 NA Plan Apo Lambda air objective. […]

For SQRLQSIKDHLVESRS [PTS2 peptide], the “Recruitment of PEX7–GFP to PEX5-21-coated beads” value (yeast PEX7 [1]) was “could recruit PEX7–GFP only in the presence of the PTS2 peptide”.

B1: KPWE peptide (residues 2–20 of S. cerevisiae PEX13 with an additional N-terminal cysteine) (peptide)
peptide: CSSTAVPRPKPWETSASLEE
notes: additional N-terminal cysteine for coupling to thiol-reactive agarose beads; PEX13, S. cerevisiae, residues 2–20; also called peptide comprising the KPWE motif of yeast PEX13; source: synthetic peptide (Genscript)
B1: binds [2]; binds (yeast PEX7 [3]).

B2: GST-tagged wild-type yeast PEX39 (GST–PEX39) (natural protein, UniProt P47087 1-132, looked up)
chain: MAAGGELSYEELLDHILNNKPIPNIVEVPNVTLDEGLASTPSLRPRPRPWEGQLQHQSHQGSLDKPNISLDIDQESLEGMTSLTRLSECYDIQSKLQINDSDNDNDDNNNDNNKGDGNDDDNNTVTANPTAR
notes: PEX39, yeast; also called WT; PEX39-coated beads; source: E. coli BL21 Rosetta 2(DE3), purified, GST-tagged; not shown: GST, N-terminal, kept
B2: binds (yeast PEX7 [4]); binds [5].

B3: PEX7–FLAG: PEX7 with a short SG linker and a FLAG epitope tag at the C terminus (protein, UniProt O00628 1-323, looked up)
Peroxisomal targeting signal …: MSAVCGGAARMLRTPGRHGYAAEFSPYLPGRLACATAQHYGIAGCGTLLILDPDEAGLRLFRSFDWNDGLFDVTWSENNEHVLITCSGDGSLQLWDTAKAAGPLQVYKEHAQEVYSVDWSQTRGEQLVVSGSWDQTVKLWDPTVGKSLCTFRGHESIIYSTIWSPHIPGCFASASGDQTLRIWDVKAAGVRIVIPAHQAEILSCDWCKYNENLLVTGAVDCSLRGWDLRNVRQPVFELLGHTYAIRRVKFSPFHASVLASCSYDFTVRFWNFSKPDSLLETVEHHTEFTCGLDFSLQSPTQVADCSWDETIKIYDPACLTIPA
modifications: C-terminal SG linker and FLAG tag
For B3, the “Enrichment in the membrane fraction” value [6] was “considerably enriched in the membrane fraction in the absence of the KPWE motif” and the “PEX7–FLAG function in protein import” value [7] was “fully functional”.
